Source: patent publication US20180086841A1 (Merck Sharp & Dohme, published 2018)
Positions count from the first letter of the chain named.

Columns and labels:
Assay in all cases: flow cytometry on CHO-K1 transfectants, left sub-column
Q15A = biological target: T1, Q15A
T1 construct: also called hCD27 Q15A
T1 receptor chain: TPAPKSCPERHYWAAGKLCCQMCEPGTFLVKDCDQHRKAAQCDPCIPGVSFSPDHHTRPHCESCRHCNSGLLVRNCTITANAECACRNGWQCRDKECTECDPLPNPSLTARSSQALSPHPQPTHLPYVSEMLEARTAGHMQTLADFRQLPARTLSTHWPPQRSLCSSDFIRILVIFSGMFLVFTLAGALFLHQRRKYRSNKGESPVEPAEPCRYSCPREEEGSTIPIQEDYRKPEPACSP
Protocol: (§1) The hCD27 variants that were tested are listed. Amino acids correspond to the UniProt P26842-1 sequence. Amino acids 1-20 constitute the signal peptide. Binding is expressed as the geometric mean of the FITC signal, relative to antibody binding to hCD27, which was set at 100%.
(§2) The ability of several anti-hCD27 antibodies to bind to a series of hCD27 alanine mutants was determined using CHO-K1 cells, transiently transfected pCI-neo empty vector, pCI-neo.hCD27 and several pCI-neo.CD27Ala mutant constructs.
(§3) Detached cells were transferred to 96 wells round-bottomed well plates at approximately 1.2×10⁵ cells/well. After spinning down the cells, discarding the supernatants and re-suspending the cells in the residual volume, the primary antibodies were added and incubated for 30 minutes at 4° C. Cells were washed three times with DPBS/BSA 1%, followed by centrifugation, discarding of the supernatants and re-suspension in the residual volume. […] After washing once, antibody binding was detected using the HTS plate reader (FACS Canto II) and FlowJo software for data analysis. Debris, dead cells and doublets were excluded from the analysis. Binding was expressed as the geometric mean of the FITC signal, relative to antibody binding to hCD27, which was set at 100%.

N88A = biological target: T2, N88A
T2 construct: also called hCD27 N88A
T2 receptor chain: T1 receptor chain with A15Q, N88A
Protocol: as §1, §2, §3

I46A = biological target: T3, I46A
T3 construct: also called hCD27 I46A
T3 receptor chain: T1 receptor chain with A15Q, I46A
Protocol: as §1, §2, §3

E9A = biological target: T4, E9A
T4 construct: also called hCD27 E9A
T4 receptor chain: T1 receptor chain with E9A, A15Q
Protocol: as §1, §2, §3

F28A = biological target: T5, F28A
T5 construct: also called hCD27 F28A
T5 receptor chain: T1 receptor chain with A15Q, F28A
Protocol: as §1, §2, §3

H60A = biological target: T6, H60A
T6 construct: also called hCD27 H60A
T6 receptor chain: T1 receptor chain with A15Q, H60A
Protocol: as §1, §2, §3

Q91A = biological target: T7, Q91A
T7 construct: also called hCD27 Q91A
T7 receptor chain: T1 receptor chain with A15Q, Q91A
Protocol: as §1, §2, §3

D32A = biological target: T8, D32A
T8 construct: also called hCD27 D32A
T8 receptor chain: T1 receptor chain with A15Q, D32A
Protocol: as §1, §2, §3

R87A = biological target: T9, R87A
T9 construct: also called hCD27 R87A
T9 receptor chain: T1 receptor chain with A15Q, R87A
Protocol: as §1, §2, §3

K31A = biological target: T10, K31A
T10 construct: also called hCD27 K31A
T10 receptor chain: T1 receptor chain with A15Q, K31A
Protocol: as §1, §2, §3

- binding, WT hCD27 = 100 (GM FITC) (Q15A): 99.6%
- binding, WT hCD27 = 100 (GM FITC) (N88A): 162%
- binding, WT hCD27 = 100 (GM FITC) (I46A): 132%
- binding, WT hCD27 = 100 (GM FITC) (E9A): 96.7%
- binding, WT hCD27 = 100 (GM FITC) (F28A): 106%
- binding, WT hCD27 = 100 (GM FITC) (H60A): 178%
- binding, WT hCD27 = 100 (GM FITC) (Q91A): 148%
- binding, WT hCD27 = 100 (GM FITC) (D32A): 113%
- binding, WT hCD27 = 100 (GM FITC) (R87A): 153%
- binding, WT hCD27 = 100 (GM FITC) (K31A): 203%
B1: hCD27.131A (mouse parental 131A) (antibody, mouse IgG1, V domains shown)
VH: QIQLVQSGPELKKPGETVKISCKASGYTFTNYGMNWVKQAPGKGLKWMGWINTNTGEPTYAEEFKGRFAFSLETSATTAYLQINNLKNEDTATYFCAREGDAMDYWGQGTSVTVSS
VL: QIVLTQSPAIMSASPGEKVTMTCSASSSVSYMHWYQQKSGTSPKRWIYDTSKLASGVPARFSGSGSGTSYSLTISSMEAEDAATYYCQQWNSYPFTFGSGTKLEIK
notes: Mouse IgG1 antibody; also called mouse hCD27.131A
